In patent US20250269003A1, “NANO-ENHANCED VACCINE” (University of Virginia Patent Foundation, priority 2022, published 2025):

Experiments:
[1] = Ideal pH range for peptide stability and dissolution; type: physicochemical; conditions: pH range required for stability and dissolution of the peptide
Source text: (§1) Encapsulation of Melanoma Peptides within Nanoliposomes. The six melanoma peptides that induce melanoma-reactive CD4^+ T cells in patients as well as their protein epitope and ideal pH range for solubility are provided in Table 1. A neutral formulation was initially chosen to encapsulate all peptides and then, through an iterative process, modified formulations to optimize encapsulation efficiencies for several of the peptides. Through this process, three different nanoliposome formulations (neutral, cationic, and anionic) suitable for distinct peptides were identified. However, all of the presently disclosed formulations contained the same base lipid components, including 1,2-distearoyl-sn-glycero-3-phosphocholine (DSPC); 1,2-Dioleoyl-sn-glycero-3-phosphoethanolamine (DOPE); 1,2-distearoyl-sn-glycero-3-phosphoethanolamine-N-[methoxy(polyethylene glycol)-2000] (ammonium salt) (PEG2000PE); KDO2; cholesterol; and a fluorophore (either rhodamine or 1,1′-Dioctadecyl-3,3,3′,3′-Tetramethylindodicarbocyanine, 4-Chlorobenzenesulfonate Salt (DiD)). Each formulation contained DSPC and DOPE at a 2.14:1 molar ratio to form a stable, spherical nanoparticle. In addition, cholesterol at a 30 molar percent was incorporated to increase rigidity and to reduce leakiness. PEG(2000)-PE at 2.5 molar percent was incorporated for biological stability, KDO2 was added to all formulations at 0.1 molar percent, and a fluorescent probe (rhodamine or DiD) was added at 0.2 molar percent for subsequent biodistribution imaging studies. Keeping the molar ratios of these key components constant, dihexadecyl phosphate (DHP) was incorporated at 10 molar percent for the anionic formulation and positively charged lipid 1,2-dioleoyl-3-trimethylammonium-propane (chloride salt) (DOTAP) at 7 molar percent for the cationic formulation. The lipid mixtures were then dried down in a nitrogen blower for roughly 2 hours until all of the chloroform was evaporated. Then, the peptide solutions, (or 1×PBS for the “ghost” formulation), was added to the dried down lipids, the tubes were then vortexed and placed in a heat shaker at 60° C. for 2 hours, followed by sonication in a 60° C. sonic bath for roughly five minutes. After sonication, the liposomes were extruded through a 100-nanometer pore membrane eleven times to create uniformly sized liposomes. The extruded liposomes were subsequently run through a Sepharose gel bead column to separate the liposomal drugs from the free drug. The solution was analyzed using Dynamic Light Scattering (DLS; polydispersity and average hydrodynamic diameter of particles in solution), and mass spectrometry.
(§2) To further ensure optimal encapsulation efficiency of the MHPs, distinct dissolution buffers tailored to each peptide's optimal pH range and previously optimized for in vivo injection of the free peptides into patients enrolled in earlier clinical studies were utilized. Specifically, for the neutral peptide formulations, 1.33 mg/ml sodium bicarbonate (NaHCO3) in a 1:2 solution of lactated Ringers solution (LR) and water respectively (B1); for the cationic formulation, 5 mg/ml NaHCO3 in water (B2); for the WNR anionic formulation, 1 mg/ml NaHCO3 in water (B3); and for the TSYVKVLHHMVKISG (TSY; SEQ ID NO: 1) anionic formulation, 1:9 ratio of 2-(N-morpholino) […] (MES) buffer and water (B4).

[2] = Peptide encapsulation within nanoliposomes (mass spectrometry); type: physicochemical; conditions: for Original mass encapsulation: neutral formulation and 1X PBS; for Optimized mass encapsulation: new liposome formulation (charge and buffer B1-B4) keeping optimal pH, full vaccine, n = 3 separate experiments in triplicate; for Encap. Efficiency: optimized formulation, based upon initial 500 μg/ml peptide concentration; for Encap. improvement: optimized versus original mass encapsulation
Source text: as §1, §2
Each of the six Melanoma Helper Peptides (6MHP) were initially incorporated in a neutral liposome formulation containing: (DSPC); (DOPE); (PEG2000PE); KDO2; cholesterol; and a fluorophore in ratios of 4.60:2.14:0.25:0.01:3.00:0.02 respectively (see Table 2). After quantifying initial encapsulation masses, an iterative approach was utilized to improve encapsulation via modifying the charge and lipid ratios of the liposomal formulation as well as the buffer for the peptide. The proportional improvements in encapsulation as well as the encapsulation efficiencies are depicted in Table 3.

SIN lymphocytes = assay: Lymphocyte viability, live-dead marker and flow cytometry; type: cell-based, human; conditions: patient SIN samples; free TSY compared with nanoliposomal KDO2/TSY
Source text: (§3) Ex Vivo Lymphocyte Stimulation using Immunogenic TSY encapsulated nanoliposomes. Freshly obtained (cryopreserved) peripheral blood mononuclear cells (PBMC) and lymphocytes from the sentinel immunized nodes (SIN) of two patient donors (under IRB protocols, clinical trial Mel41 (NCT00089219; IRB #10464; Slingluff et al., 2008b) were utilized to assess CD4^+ T cell proliferation after treatment with the anionic TSY (MAGE-3281-295 peptide; Table 1) MIP-KDO2 nanoliposome. Firstly, a cell viability study was performed using a live-dead marker and flow cytometry to ensure that cell viability was not impacted by the presence of either the peptides or the liposomes. In this study, SIN lymphocytes from the two patient donors (SIN1 and SIN2) were treated with a variety of free peptides and liposome combinations. […] Cells were acquired on a FACSCANTO™ II flow cytometer (BD Biosciences) maintained by the Carter Immunology Center at the University of Virginia and the data analyzed using FlowJo software (version 10; BD Biosciences).
(§4) Using blood samples from melanoma patients who had previously been vaccinated with a 6MHP vaccine on the Mel41 trial and had developed a robust CD4^+ T cell immune response to the TSY antigen (Slingluff et al., 2008b), lymphocyte viability and CD4^+ T cell proliferation to the TSY nano-formulations ex vivo were analyzed. […]

[3] = system: CD4^+ T cells from sentinel immunized nodes (SIN1, SIN2); assay: CFSE dye-dilution CD4+ T cell proliferation assay, sentinel immunized node cells; type: cell-based, human; conditions: SIN1 and SIN2 donor cells, 2 μg/mL peptide, 5 days
Source text: as §3, §4

AQNILLSNAPLGPQFP (listed as Homo sapiens) [melanoma helper peptide, amino acids 56-70 of human tyrosinase]
Ideal pH range [1]: 8.5-9.0 | Original mass encapsulation [2]: 0.02 ± 0.005 µg/mL | Optimized mass encapsulation [2]: 6.25 ± 1.13 µg/mL | Encap. Efficiency [2]: 1.25% | Encap. improvement [2]: 312X

FLLHHAFVDSIFEQWLQRHRP (listed as Homo sapiens) [melanoma helper peptide, amino acids 386-406 of human tyrosinase]
Ideal pH range [1]: 6.0-8.0 | Original mass encapsulation [2]: 28.15 ± 2.05 µg/mL | Optimized mass encapsulation [2]: 58.61 ± 4.96 µg/mL | Encap. Efficiency [2]: 11.72% | Encap. improvement [2]: 2.08X

LLKYRAREPVTKAE (listed as Homo sapiens) [melanoma helper peptide, amino acids 121-134 of human MAGE-1,2,3,6]
Ideal pH range [1]: 6.0-8.0 | Original mass encapsulation [2]: 34.56 ± 0.69 µg/mL | Optimized mass encapsulation [2]: 57.26 ± 14.39 µg/mL | Encap. Efficiency [2]: 11.45% | Encap. improvement [2]: 1.66X

RNGYRALMDKSLHVGTQCALTRR (listed as Homo sapiens) [melanoma helper peptide, amino acids 51-73 of human Melan-A/MART-1]
Ideal pH range [1]: 6.0-8.0 | Original mass encapsulation [2]: 22.37 ± 0.30 µg/mL | Optimized mass encapsulation [2]: 19.18 ± 6.36 µg/mL | Encap. Efficiency [2]: 3.29% | Encap. improvement [2]: 0.85X

TSYVKVLHHMVKISG (listed as Homo sapiens) [melanoma helper peptide, amino acids 281-295 of human MAGE-3]
Ideal pH range [1]: 5.0-5.5 | Original mass encapsulation [2]: 0.17 ± 0.001 µg/mL | Optimized mass encapsulation [2]: 141.35 ± 2.18 µg/mL | Encap. Efficiency [2]: 28.27% | Encap. improvement [2]: 831X | cell viability (SIN lymphocytes): no discernable differences in cell viability | CD4^+ T cell proliferation (CFSE dilution) [3]: expected CD4^+ T cell proliferation response was observed

WNRQLYPEWTEAQRLD
Ideal pH range [1]: 7.0-8.0 | Original mass encapsulation [2]: 4.81 ± 0.09 µg/mL | Optimized mass encapsulation [2]: 7.64 ± 0.99 µg/mL | Encap. Efficiency [2]: 1.53% | Encap. improvement [2]: 1.59X
